Data taken from patent US20250115669A1, “FGFR1/KLB Targeting Agonistic Antigen-Binding Proteins and Conjugates Thereof with GLP-1R Agonistic Peptides” (SANOFI, priority 2020, published 2025).
Marks after values point to notes of the source that are not given here.

Assays:
[1] = Size-exclusion chromatography (SEC); assay type: physicochemical
Experimental: Analytical SEC was performed using a BioSECcurity instrument (PSS Polymer) with an AdvanceBio 300 column (4.6 mm×300 mm) and AdvanceBio 300 guard column (Agilent Technologies) at room temperature. The analysis was run at a flow rate of 0.5 mL/min using 2× concentrated D-PBS buffer (Thermo Fisher Scientific) with detection at 280 nm. 10 μL of protein sample (at 1 mg/mL) were applied onto the column. Data evaluation was performed using WinGPC software v8.1 (PSS Polymer). For estimation of the molecular weight, the SEC column was calibrated with the AdvanceBio SEC 300 Å Protein Standard (Agilent Technologies).

[2] = Capillary gel electrophoresis (cGE); assay type: physicochemical
Experimental: Capillary Gel Electrophoresis (cGE) Purity and size heterogeneity of the samples was determined by capillary gel electrophoresis (cGE) using a CES18000 instrument (SCIEX) equipped with a pre-assembled fused silica capillary (50 μm×300 mm, SCIEX). Protein samples at 1 mg/ml were prepared using the IgG purity heterogeneity Kit (SCIEX) under non-reducing conditions according to the manufacturer's specifications. Samples were electrophoretically separated for 35 minutes at 25° C. and the absorbance at 220 nm was recorded by a photo diode array (PDA) detector. The data were analyzed using 32 Karat Software (SCIEX).

[3] = Hydrophobic interaction chromatography (HIC); assay type: physicochemical
Experimental: The analysis was run at a flow rate of 1 mL/min with detection at 280 nm. 5 μg of undiluted protein sample were applied onto the column. Gradient elution was from 15% B to 85% B in 7 min followed by 1 min to 100% B, then 1 min to 15% B and then 3 minutes equilibration at 15% B. Buffer A was composed of 1.5 mol/L ammonium sulfate, 25 mmol/L sodium phosphate pH 7.0. Buffer B was composed of 25 mmol/L sodium phosphate pH 7.0. Data evaluation was performed either using LabSolutions software v5.85 (Shimadzu) or Chromeleon 7 software (Thermo Fisher Scientific).

[4] = In vivo PK in transgenic humanized FcRn mice (Tg32); conditions: 0.3 mg/kg single IV, plasma
Experimental: In vivo PK studies were conducted in transgenic humanized FcRn mice (Tg32). For these studies, no GLP compliance was claimed.

[5] = target: T1, FGFR1c and co-receptor beta-Klotho (KLB) (Homo sapiens, UniProt P11362+Q86Z14); experiment: Luciferase reporter gene assay (iLite FGF21 Assay Ready Cells), FGF21-like signaling; assay type: cell-based
T1 construct: host or cells: iLite FGF21 Assay Ready Cells (HEK293)
T1 sequence (Q86Z14 53-1044 limits assumed): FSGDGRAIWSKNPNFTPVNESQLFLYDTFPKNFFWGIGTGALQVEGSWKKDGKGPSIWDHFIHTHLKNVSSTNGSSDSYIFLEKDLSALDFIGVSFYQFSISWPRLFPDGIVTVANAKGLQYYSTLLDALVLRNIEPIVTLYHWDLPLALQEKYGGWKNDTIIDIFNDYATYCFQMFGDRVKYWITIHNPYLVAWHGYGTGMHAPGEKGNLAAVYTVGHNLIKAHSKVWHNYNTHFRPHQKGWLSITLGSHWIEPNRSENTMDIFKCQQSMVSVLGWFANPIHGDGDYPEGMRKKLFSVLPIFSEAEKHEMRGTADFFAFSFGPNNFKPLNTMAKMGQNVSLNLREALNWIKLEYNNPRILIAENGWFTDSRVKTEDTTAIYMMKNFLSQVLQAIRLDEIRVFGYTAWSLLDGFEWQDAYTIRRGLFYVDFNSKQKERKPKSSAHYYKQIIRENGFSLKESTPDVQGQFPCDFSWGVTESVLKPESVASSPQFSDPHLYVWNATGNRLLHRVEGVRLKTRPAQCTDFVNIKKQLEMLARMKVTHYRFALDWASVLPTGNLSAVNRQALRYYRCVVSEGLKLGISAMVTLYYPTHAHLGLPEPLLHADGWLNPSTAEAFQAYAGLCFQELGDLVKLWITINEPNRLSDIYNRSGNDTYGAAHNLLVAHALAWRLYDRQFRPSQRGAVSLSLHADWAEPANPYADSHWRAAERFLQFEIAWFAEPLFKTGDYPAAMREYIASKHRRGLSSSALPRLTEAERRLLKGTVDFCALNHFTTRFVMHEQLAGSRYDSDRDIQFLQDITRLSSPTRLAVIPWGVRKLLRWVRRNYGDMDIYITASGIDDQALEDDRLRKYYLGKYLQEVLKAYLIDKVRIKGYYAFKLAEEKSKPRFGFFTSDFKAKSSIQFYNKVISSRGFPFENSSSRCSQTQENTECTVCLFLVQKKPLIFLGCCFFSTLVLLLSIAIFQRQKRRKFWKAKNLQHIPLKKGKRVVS
T1 sequence (P11362 22-820 isoform P11362-2 limits assumed): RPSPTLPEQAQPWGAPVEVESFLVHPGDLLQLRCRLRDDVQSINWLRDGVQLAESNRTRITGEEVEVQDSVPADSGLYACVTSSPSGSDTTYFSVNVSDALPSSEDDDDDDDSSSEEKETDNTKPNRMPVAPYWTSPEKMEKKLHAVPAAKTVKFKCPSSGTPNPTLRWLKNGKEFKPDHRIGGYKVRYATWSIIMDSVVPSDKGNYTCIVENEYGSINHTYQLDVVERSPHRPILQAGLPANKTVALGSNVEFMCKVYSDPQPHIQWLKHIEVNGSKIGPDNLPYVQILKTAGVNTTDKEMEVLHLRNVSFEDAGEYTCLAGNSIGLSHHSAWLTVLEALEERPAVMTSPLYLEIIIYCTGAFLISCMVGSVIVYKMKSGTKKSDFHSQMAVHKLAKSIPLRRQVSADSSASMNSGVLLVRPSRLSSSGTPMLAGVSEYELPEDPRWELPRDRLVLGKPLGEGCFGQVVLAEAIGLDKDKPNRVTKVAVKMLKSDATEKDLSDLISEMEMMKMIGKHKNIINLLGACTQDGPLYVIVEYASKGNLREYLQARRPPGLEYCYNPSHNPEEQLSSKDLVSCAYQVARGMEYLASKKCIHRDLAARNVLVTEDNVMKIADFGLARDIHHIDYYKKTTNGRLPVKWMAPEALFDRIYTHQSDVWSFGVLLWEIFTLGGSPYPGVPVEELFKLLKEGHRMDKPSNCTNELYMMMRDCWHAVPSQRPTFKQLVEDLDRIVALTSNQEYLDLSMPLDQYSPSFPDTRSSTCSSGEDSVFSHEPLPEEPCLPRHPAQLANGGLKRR

[6] = Nano differential scanning fluorimetry (nanoDSF), Tonset and Tm; assay type: physicochemical
Experimental: Onset temperatures (Tonset) and melting points (Tm) of protein denaturation were determined using nano differential scanning fluorimetry (nanoDSF). Samples were diluted in formulation buffer to a final concentration of 0.5 mg/mL and loaded into nanoDSF capillaries in duplicates (Nanotemper Technologies). All measurements were done using a Prometheus NT.plex nanoDSF device (Nanotemper Technologies). Heating rate was 1° C. per minute from 20° C. to 95° C. Data were recorded using PR.ThermControl Software v2.3.1 (Nanotemper Technologies) and analyzed using PR.Stability Analysis Software v1.0.3 (Nanotemper Technologies).

[7] = Dynamic light scattering (DLS) and diffusion interaction parameter (kD); assay type: physicochemical
Experimental: Dynamic light scattering (DLS) was performed using a DynaPro Plate Reader (Wyatt Technology). The samples were measured in 384 well assay plates (Corning) at 25° C. Data were evaluated by cumulant fitting using Dynamics Software version 7.7.0.125 (Wyatt Technology).
Colloidal stability of the samples was assessed by measuring the diffusion interaction parameter (kD) at 20° C. using a DynaPro Plate Reader (Wyatt Technology). Before the measurements the samples were buffer exchanged against 5 L of 10 mmol/L Histidine pH 6.0 by dialysis for 20 h with one buffer change using 1 mL Float-A-Lyzer G2 devices with 3.5-5 kDa cut-off (Spectrum Labs). A dilution series from 1 to 4.5 mg/mL, in 0.5 mg/mL increments, was prepared in 10 mmol/L Histidine pH 6.0 and measured in 384 well assay plates (Corning).

[8] = In vivo PK in cynomolgus monkeys, single intravenous dose; set-up: species or system Cynomolgus monkey (Macaca fascicularis); conditions: Macaca fascicularis, 3.0 mg/kg single IV, plasma
Experimental: Naive cynomolgus monkeys received a single intravenous dose of mAb according to the following table:
In all investigations, the animals were evaluated twice daily for post-dose mortality/moribundity and cage side clinical observations were carried out after each study blood collection time. Studies were Non-GLP, nevertheless, these studies have been conducted in a GLP compliant facility using practices detailed in Standard Operating Procedures consistent with the principles of GLP (Test facility: Sanofi and Charles River Laboratories). Plasma concentrations and pharmacokinetic parameters of the tested antibodies were investigated after single intravenous administration.

For “Ab0331: IgG4 PE; 16H7 VL (N25S, D49S, D50E, D91E, N93E); 16H7 VH (M34V, I83T, D109E); HC SEQ ID NO: 38, LC SEQ ID NO: 45”, the “SEC % HMW” value ([1]; pH 5, 40° C., d 21) was 1%, the “SEC % LMW” value ([1]; pH 5, 40° C., d 21) was 0% and the “SEC % HMW” value ([1]; pH 5, d 0) was 1%. The “SEC % LMW” value ([1]; pH 5, d 0) was 0%, the “SEC % HMW” value ([1]; pH 6, 40° C., d 21) was 0% and the “SEC % LMW” value ([1]; pH 6, 40° C., d 21) was 0%. The “SEC % HMW” value ([1]; pH 6, d 0) was 1%, the “SEC % LMW” value ([1]; pH 6, d 0) was 0% and the “SEC % HMW” value ([1]; pH 8, 40° C., d 21) was 1%. The “SEC % LMW” value ([1]; pH 8, 40° C., d 21) was 1%, the “SEC % HMW” value ([1]; pH 8, d 0) was 2% and the “SEC % LMW” value ([1]; pH 8, d 0) was 0%. The “Homogeneity cGE % Monomer” value [2] was 77%, the “Hydrophobic variance HIC Number of peaks” value [3] was 1 and the “HIC Number of peaks” value ([3]; pH 5, 40° C., d 21) was 1. For the same substance, the “HIC Number of peaks” value ([3]; pH 5, d 0) was 1, the “HIC Number of peaks” value ([3]; pH 6, 40° C., d 21) was 1 and the “HIC Number of peaks” value ([3]; pH 6, d 0) was 1. The “HIC Number of peaks” value ([3]; pH 8, 40° C., d 21) was 1, the “HIC Number of peaks” value ([3]; pH 8, d 0) was 1 and the t½ ([4]; noncompartmental analysis) was 14.9 days. For the same substance, the “cellular activity in the Luciferase gene reporter assay compared to 16H7” value [5] was “comparable cellular activity”, the “Thermal stability DSF Tm” value [6] was 63 °C and the “Thermal stability DSF Tonset” value [6] was 53 °C. The “DSF Tm” value ([6]; pH 5, 40° C., d 21) was 61 °C, the “DSF Tonset” value ([6]; pH 5, 40° C., d 21) was 44 °C and the “DSF Tm” value ([6]; pH 5, d 0) was 61 °C. The “DSF Tonset” value ([6]; pH 5, d 0) was 54 °C, the “DSF Tm” value ([6]; pH 6, 40° C., d 21) was 62 °C and the “DSF Tonset” value ([6]; pH 6, 40° C., d 21) was 50 °C. For the same substance, the “DSF Tm” value ([6]; pH 6, d 0) was 63 °C, the “DSF Tonset” value ([6]; pH 6, d 0) was 53 °C and the “DSF Tm” value ([6]; pH 8, 40° C., d 21) was 67 °C. The “DSF Tonset” value ([6]; pH 8, 40° C., d 21) was 57 °C, the “DSF Tm” value ([6]; pH 8, d 0) was 68 °C and the “DSF Tonset” value ([6]; pH 8, d 0) was 58 °C. For the same substance, the “Homogeneity DLS Hydrodynamic radius” value [7] was 5.3 nm, the “DLS Hydrodynamic radius” value ([7]; pH 5, 40° C., d 21) was 5.3 nm and the “DLS Hydrodynamic radius” value ([7]; pH 5, d 0) was 5.5 nm. For the same substance, the “DLS Hydrodynamic radius” value ([7]; pH 6, 40° C., d 21) was 5.2 nm, the “DLS Hydrodynamic radius” value ([7]; pH 6, d 0) was 5 nm and the “DLS Hydrodynamic radius” value ([7]; pH 8, 40° C., d 21) was 5.9 nm. For the same substance, the “DLS Hydrodynamic radius” value ([7]; pH 8, d 0) was 5.6 nm and the t½ [8] was 10.8 days.

For “Ab0335: IgG4 PE; 16H7 VL (N25S, D49S, D50A, D91E, N93E); 16H7 VH (M34V, I83T, D109E); HC SEQ ID NO: 39, LC SEQ ID NO: 46”, the “SEC % HMW” value ([1]; pH 5, 40° C., d 21) was 0%, the “SEC % LMW” value ([1]; pH 5, 40° C., d 21) was 0% and the “SEC % HMW” value ([1]; pH 5, d 0) was 1%. The “SEC % LMW” value ([1]; pH 5, d 0) was 0%, the “SEC % HMW” value ([1]; pH 6, 40° C., d 21) was 0% and the “SEC % LMW” value ([1]; pH 6, 40° C., d 21) was 0%. The “SEC % HMW” value ([1]; pH 6, d 0) was 1%, the “SEC % LMW” value ([1]; pH 6, d 0) was 0% and the “SEC % HMW” value ([1]; pH 8, 40° C., d 21) was 5%. The “SEC % LMW” value ([1]; pH 8, 40° C., d 21) was 1%, the “SEC % HMW” value ([1]; pH 8, d 0) was 2% and the “SEC % LMW” value ([1]; pH 8, d 0) was 0%. For the same substance, the “Homogeneity cGE % Monomer” value [2] was 79%, the “Hydrophobic variance HIC Number of peaks” value [3] was 1 and the “HIC Number of peaks” value ([3]; pH 5, 40° C., d 21) was 1. The “HIC Number of peaks” value ([3]; pH 5, d 0) was 1, the “HIC Number of peaks” value ([3]; pH 6, 40° C., d 21) was 1 and the “HIC Number of peaks” value ([3]; pH 6, d 0) was 1. The “HIC Number of peaks” value ([3]; pH 8, 40° C., d 21) was 1, the “HIC Number of peaks” value ([3]; pH 8, d 0) was 1 and the “t½ calculated with compartment model” value ([4]; compartment model) was 300* h. The “cellular activity in the Luciferase gene reporter assay compared to 16H7” value [5] was “comparable cellular activity”, the “Thermal stability DSF Tm” value [6] was 63 °C and the “Thermal stability DSF Tonset” value [6] was 52 °C. For the same substance, the “DSF Tm” value ([6]; pH 5, 40° C., d 21) was 62 °C, the “DSF Tonset” value ([6]; pH 5, 40° C., d 21) was 45 °C and the “DSF Tm” value ([6]; pH 5, d 0) was 61 °C. For the same substance, the “DSF Tonset” value ([6]; pH 5, d 0) was 51 °C, the “DSF Tm” value ([6]; pH 6, 40° C., d 21) was 62 °C and the “DSF Tonset” value ([6]; pH 6, 40° C., d 21) was 50 °C. For the same substance, the “DSF Tm” value ([6]; pH 6, d 0) was 63 °C, the “DSF Tonset” value ([6]; pH 6, d 0) was 52 °C and the “DSF Tm” value ([6]; pH 8, 40° C., d 21) was 68 °C. The “DSF Tonset” value ([6]; pH 8, 40° C., d 21) was 57 °C, the “DSF Tm” value ([6]; pH 8, d 0) was 68 °C and the “DSF Tonset” value ([6]; pH 8, d 0) was 57 °C. The “Homogeneity DLS Hydrodynamic radius” value [7] was 5.2 nm, the “DLS Hydrodynamic radius” value ([7]; pH 5, 40° C., d 21) was 5.2 nm and the “DLS Hydrodynamic radius” value ([7]; pH 5, d 0) was 5.3 nm. For the same substance, the “DLS Hydrodynamic radius” value ([7]; pH 6, 40° C., d 21) was 5.1 nm, the “DLS Hydrodynamic radius” value ([7]; pH 6, d 0) was 5.2 nm and the “DLS Hydrodynamic radius” value ([7]; pH 8, 40° C., d 21) was 6.1 nm. For the same substance, the “DLS Hydrodynamic radius” value ([7]; pH 8, d 0) was 5.3 nm and the t½ [8] was 12.8 days.
